Assay results from patent US20190374567A1, “Reverse Transcriptase Dependent Conversion of RNA Templates Into DNA” (priority 2016, published 2019).

Legend:
Superscript III = test: RT-PCR of 2.2 kb eGFP transcript with Superscript III; format: biochemical; conditions: 1.5 μg RNA
Text: (§1) Samples were DNase treated using the Qiagen RNase-Free DNase Set (Qiagen Catalog #79254) followed by purification using the Qiagen RNeasy Mini Kit (Qiagen Catalog #74104) and manufacturer's instructions. To eliminate potential gDNA contamination, each RNA sample was DNase treated four times.
(§2) cDNA was generated using Invitrogen's SuperScript III First-Strand Synthesis System for RT-PCR (Invitrogen Catalog #18080-051) or a recombinant HIV Reverse Transcriptase (HIV RT, Worthington Biochemical Corporation Catalog #LS05003). All reactions received 2 μl 10 RT reaction buffer, 4 μl 25 mM MgCl2, 2 μl 0.1 M DTT, 1 μl 10 mM dNTPs, and 2 μM primer (8 μM when Phosphorothioate Primer used). For reactions using Superscript III, 200 U enzyme was used. Reactions using HIV RT contained 10 U enzyme. Different concentrations of RNA template were used, ranging from 1.5 to 5 μg/reaction. Table 21. No-RT and no-template controls were set up during reverse transcription. Reactions using Superscript III enzyme were incubated at 65° C. for 5 minutes, 50° C. for 60 minutes, and 85° C. for 5 minutes. Reactions using HIV RT were incubated at 65° C. for 5 minutes, 37° C. for 60 minutes, and 85° C. for 5 minutes. HIV RT was tested in the presence and absence of beta-thujaplicinol.
(§3) PCR Analysis: PCR was performed using primers PCR-F2 and PCR-R2. PCR products were resolved using a 1% agarose gel and purified using the QIAquick Gel Extraction Kit (Qiagen Catalog #28704). […]

[1] = target: T1, HIV Reverse Transcriptase (Human immunodeficiency virus type 1 group M subtype B, UniProt P04585); test: RT-PCR of 2.2 kb eGFP transcript with HIV RT, with or without beta-thujaplicinol; format: biochemical
T1 construct: a recombinant HIV Reverse Transcriptase; purchased Worthington Biochemical Corporation LS05003
Text: as §1, §2, §3

[2] = Sequence analysis of RT-PCR product against reference sequence; conditions: SV40 DNA primer and HIV RT used in cDNA generation
Protocol: Sequence Analysis: Sequencing was performed using BigDye Terminator Cycle Sequencing. Data analysis was performed by GENEWIZ with DNASTAR Lasergene software. FIG. 34 (SEQ ID NO.: 23) depicts the WT eGFP Consensus sequence (2,225 bp); SV40 DNA primer and HIV RT used in cDNA generation. FIG. 35 (SEQ ID NO.: 24) depicts the Alpha-Thio-Uridine eGFP Consensus (2,225 bp); SV40 RNA primer and Superscript used in cDNA generation.

[3] = mRNA quality check before and after DNase treatment (agarose gel, OD 260/280); format: physicochemical
Protocol: The experimental procedure and assay readout for the analysis and removal of the mRNA contamination by plasmidic DNA was as follows: 1) the 4 mRNAs solutions were thawed, aliquoted and stored at −80° C., 2) aliquots of the mRNAs solutions were treated with the DNase as recommended by the manufacturer (Qiagen, cat #79254): four rounds of DNase were successively performed, 3) following the DNase digestion, the mRNAs were purified on columns as recommended by the manufacturer (Qiagen, RNeasy Elute), 4) the eluates were quantified and controlled on an Agarose gel, 5) a PCR amplification reaction was performed to evaluate the DNA contamination of the mRNA solutions before and after the DNase treatment.
Timeline of mRNAs solutions control and DNA digestion. mRNA solutions are thawed and digested with DNase. The solutions are purified on a column. The mRNA is quantified and quality control on an agarose gel is performed after purification. A PCR reaction of the mRNA aliquots is performed on aliquots from before and after purification.

B1: EGFP-WT: 2.2 kb wild type eGFP transcript (RNA template synthesized with plasmid pAFTAB) (nucleic acid)
DNA: TTGGCCACTCCCTCTCTGCGCGCTCGCTCGCTCACTGAGGCCGCCCGGGCAAAGCCCGGGCGTCGGGCGACCTTTGGTCGCCCGGCCTCAGTGAGCGAGCGAGCGCGCAGAGAGGGAGTGGCCAA
modifications: chemistry not fully specified; the letters are possibly those of the target site
In the case of B1, the “2.2 kb fragment of interest in PCR from RT reaction” value (shortened to “2.2 kb fragment of interest in PCR”) (Superscript III; PBS RNA primer) is reported as “present”, the “2.2 kb fragment of interest in PCR” value (Superscript III; PCR-R2 primer) is reported as “present” and the “2.2 kb fragment of interest in PCR” value (Superscript III; SV40 DNA primer) is reported as “present”. The “2.2 kb fragment of interest in PCR” value ([1]; SV40 DNA primer, 1.5 μg RNA, β-Thujaplicinol 0 μM) was “present”, the “2.2 kb fragment of interest in PCR” value ([1]; SV40 DNA primer, 2 μg RNA, β-Thujaplicinol 0 μM) was “present” and the “2.2 kb fragment of interest in PCR” value ([1]; SV40 DNA primer, 2 μg RNA, β-Thujaplicinol 1 μM) was “present”. For the same molecule, the “2.2 kb fragment of interest in PCR” value ([1]; SV40 DNA primer, 5 μg RNA, β-Thujaplicinol 0.2 μM) was “present”, the “2.2 kb fragment of interest in PCR” value ([1]; SV40 RNA primer, 1.5 μg RNA, β-Thujaplicinol 0 μM) was “present” and the “2.2 kb fragment of interest in PCR” value ([1]; SV40 RNA primer, 1.5 μg RNA, β-Thujaplicinol 0.2 μM) was “present”. For the same molecule, the “2.2 kb fragment of interest in PCR” value ([1]; SV40 RNA primer, 2 μg RNA, β-Thujaplicinol 1 μM) was “present”, the “consensus sequence match to the reference sequence” value [2] was 100% and the “OD 260/280 Post-treatment” value ([3]; mRNA solution after DNase treatment and column purification) was 2.05. For the same molecule, the “OD 260/280 Pre-treatment” value ([3]; mRNA solution before DNase treatment and column purification) was 2.07.
